In series [1] the target is Prp43-GP (T61-A764 fused to G-path domain of Pfa1) (Chaetomium thermophilum). The series is described as follows: EMSA; milder dissociation than wild type; 120 nM protein, 30 nM DNA. Conditions: tags: C-terminal G-path domain fusion; GST tag removed; label: FAM. As for the experimental part: (§1) In this example, the binding of the N-terminus (M1-N60)-truncated wild-type Prp43 helicases or the modified protein constructs Prp43-GP and Prp43-GP-2 (F181C/N623C/C508S) to DNA, including the enhancement of nucleic acid binding following disulfide bond formation between mutant sites F181C and N623C in the mutants catalyzed by a TMAD catalyst, was assayed by an electrophoresis mobility shift assay.
(§2) The experimental procedures were as follows: 30 nM FAM fluorophore-labeled single-stranded poly-thymine substrate T44-37-FAM was added to a buffer (10 mM HEPES, 50 mM KCl, pH 7.0), the wild-type Prp43 helicase and the modified helicases […] and Prp43-GP-2 at a final concentration of 120 nM were separately added, and the mixture was incubated at 30° C. for 1.5 h; a TMAD cross-linking agent at a final concentration 1000 times that of the helicase was used for catalyzing the crosslinking of cysteines at mutation sites, and the mixture was incubated at 30° C. for 1.5 h.
A general note: In EMSA bound probe runs differently from free probe, usually more slowly.

In series [2] the target is Prp43-GP-2 (F181C/N623C/C508S) (Chaetomium thermophilum). The series is described as follows: EMSA; no significant dissociation with or without TMAD; 120 nM protein, 30 nM DNA. The conditions noted are these: tags: C-terminal G-path domain fusion; GST tag removed; label: FAM. As to the method:
as §1, §2

For TTTTTTTTTTTTTTTTTTTTTTTTTTTTTTTTTTTTTTTTTTTT (ssDNA, [FAM at T37 (from name)]) [T44-37-FAM poly-thymine substrate], the binding result in series [1] and in series [2] was “binds” throughout.

Source of the values: US20240368568, “MODIFIED PRP43 HELICASE AND USE THEREOF” (QITAN TECHNOLOGY LTD., CHENGDU, published 2024).
